This note sets out measurements from patent US20120121608A1 (CALIFORNIA INSTITUTE OF TECHNOLOGY, published 2012).

Sequences and labels used below:
T1: RIP, endogenous, in mouse embryonic fibroblasts (mouse, UniProt Q60855 1-656)
T1 sequence (looked up): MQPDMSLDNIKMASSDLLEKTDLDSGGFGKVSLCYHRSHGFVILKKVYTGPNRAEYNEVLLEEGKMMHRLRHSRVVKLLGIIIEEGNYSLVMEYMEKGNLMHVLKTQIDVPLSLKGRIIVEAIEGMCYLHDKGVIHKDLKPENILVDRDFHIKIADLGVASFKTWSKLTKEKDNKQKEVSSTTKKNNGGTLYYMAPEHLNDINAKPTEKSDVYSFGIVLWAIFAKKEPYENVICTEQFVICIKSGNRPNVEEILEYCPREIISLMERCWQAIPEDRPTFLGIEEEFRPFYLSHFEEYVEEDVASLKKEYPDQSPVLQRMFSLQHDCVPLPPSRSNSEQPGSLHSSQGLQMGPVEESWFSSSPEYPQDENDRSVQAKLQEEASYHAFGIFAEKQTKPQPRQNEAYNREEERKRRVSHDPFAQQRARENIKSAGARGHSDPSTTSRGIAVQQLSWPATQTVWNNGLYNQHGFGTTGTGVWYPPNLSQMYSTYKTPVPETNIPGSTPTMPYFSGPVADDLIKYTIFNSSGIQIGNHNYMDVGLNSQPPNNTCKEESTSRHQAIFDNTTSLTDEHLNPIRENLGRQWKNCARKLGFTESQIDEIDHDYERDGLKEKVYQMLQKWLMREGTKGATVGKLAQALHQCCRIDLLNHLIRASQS

B1: Sam68, endogenous, in mouse embryonic fibroblasts (MEF) (other, UniProt Q60749 1-443, looked up)
chain: MQRRDDPASRLTRSSGRSCSKDPSGAHPSVRLTPSRPSPLPHRPRGGGGGPRGGARASPATQPPPLLPPSTPGPDATVVGSAPTPLLPPSATAAVKMEPENKYLPELMAEKDSLDPSFTHAMQLLSVEIEKIQKGESKKDDEENYLDLFSHKNMKLKERVLIPVKQYPKFNFVGKILGPQGNTIKRLQEETGAKISVLGKGSMRDKAKEEELRKGGDPKYAHLNMDLHVFIEVFGPPCEAYALMAHAMEEVKKFLVPDMMDDICQEQFLELSYLNGVPEPSRGRGVSVRGRGAAPPPPPVPRGRGVGPPRGALVRGTPVRGSITRGATVTRGVPPPPTVRGAPTPRARTAGIQRIPLPPTPAPETYEDYGYDDTYAEQSYEGYEGYYSQSQGESEYYDYGHGELQDSYEAYGQDDWNGTRPSLKAPPARPVKGAYREHPYGRY
notes: also called KHDRBS1
B2: TNF receptor, endogenous, in mouse embryonic fibroblasts (MEF) (receptor, UniProt P25118 30-454, looked up)
chain: LVPSLGDREKRDSLCPQGKYVHSKNNSICCTKCHKGTYLVSDCPSPGRDTVCRECEKGTFTASQNYLRQCLSCKTCRKEMSQVEISPCQADKDTVCGCKENQFQRYLSETHFQCVDCSPCFNGTVTIPCKETQNTVCNCHAGFFLRESECVPCSHCKKNEECMKLCLPPPLANVTNPQDSGTAVLLPLVILLGLCLLSFIFISLMCRYPRWRPEVYSIICRDPVPVKEEKAGKPLTPAPSPAFSPTSGFNPTLGFSTPGFSSPVSSTPISPIFGPSNWHFMPPVSEVVPTQGADPLLYESLCSVPAPTSVQKWEDSAHPQRPDNADLAILYAVVDGVPPARWKEFMRFMGLSEHEIERLEMQNGRCLREAQYSMLEAWRRRTPRHEDTLEVVGLVLSKMNLAGCLENILEALRNPAPSSTTRLPR
notes: also called TNF receptor complex
B3: TNF receptor, endogenous, in HeLa cells (receptor, human, UniProt P19438 30-455, looked up)
chain: LVPHLGDREKRDSVCPQGKYIHPQNNSICCTKCHKGTYLYNDCPGPGQDTDCRECESGSFTASENHLRHCLSCSKCRKEMGQVEISSCTVDRDTVCGCRKNQYRHYWSENLFQCFNCSLCLNGTVHLSCQEKQNTVCTCHAGFFLRENECVSCSNCKKSLECTKLCLPQIENVKGTEDSGTTVLLPLVIFFGLCLLSLLFIGLMYRYQRWKSKLYSIVCGKSTPEKEGELEGTTTKPLAPNPSFSPTPGFTPTLGFSPVPSSTFTSSSTYTPGDCPNFAAPRREVAPPYQGADPILATALASDPIPNPLQKWEDSAHKPQSLDTDDPATLYAVVENVPPLRWKEFVRRLGLSDHEIDRLELQNGRCLREAQYSMLATWRRRTPRREATLELLGRVLRDMDLLGCLEDIEEALCGPAALPPAPSLLR

In test [1] the target is T1, RIP, endogenous, in mouse embryonic …. The test can be described thus: immunoprecipitation of Sam68 from TNF-treated MEF cells, probed for RIP (FIG. 15E).
Test [2] has as its target B1. Description: immunoprecipitation of endogenous Sam68 from MEF cells, immunoblot for TNFR (FIG. 10). The method, then:
(§1) 20-25×10⁶ control and treated cells were lysed in a rotator at 4° C. for 30 minutes in the lysis buffer (1.0% Triton-X100, 20 mM HEPES (pH 7.6), 150 mM NaCl, 1 mM EDTA, 10% glycerol and complete protease inhibitor cocktail). The immunoprecipitates were washed thrice with the lysis buffer and boiled with LDS sample buffer (Invitrogen). Samples with the endogenous protein complexes were resolved in Novex 4-12% Bis-Tris gels (Invitrogen) and transferred to nitrocellulose membrane, probed using relevant antibodies and detected using the SuperSignal West Pico or West Femto Chemiluminescent Substrate System (Pierce). Detection of proteins in the immunoprecipitates with molecular weight close to the denatured heavy and light chains of immunoglobulins (50 kDa and 25 kDa respectively) was performed using native IgG detection reagent (Pierce). […] Additionally, membrane fractionation was performed on cells treated with TNF.

The target in test [3] is T2, Sam68, endogenous, in human cells (HeLa, 293T) (human, UniProt Q07666 1-443).
T2 construct: also called endogenous Sam68
Description: immunoprecipitation of TNFR with anti-TNFR antibody from HeLa cells, immunoblot (FIG. 9E). On the procedure: as §1

Turning to B1, the binding result in test [1] is “binds”. For the molecule B2, the binding result in test [2] is listed as “binds”. On to B3, for which the binding result in test [3] was “binds”.
